Experimental data taken from patent US20230270823A1 (WUXI BIOLOGICS IRELAND, published 2023).

T1: IL-15Rβ/γ chain (IL-2Rβ and common gamma chain) on human CD8+ T cells and NK cells (human, UniProt P14784 27-551; P31785 23-369)
T1 sequence (looked up) 1: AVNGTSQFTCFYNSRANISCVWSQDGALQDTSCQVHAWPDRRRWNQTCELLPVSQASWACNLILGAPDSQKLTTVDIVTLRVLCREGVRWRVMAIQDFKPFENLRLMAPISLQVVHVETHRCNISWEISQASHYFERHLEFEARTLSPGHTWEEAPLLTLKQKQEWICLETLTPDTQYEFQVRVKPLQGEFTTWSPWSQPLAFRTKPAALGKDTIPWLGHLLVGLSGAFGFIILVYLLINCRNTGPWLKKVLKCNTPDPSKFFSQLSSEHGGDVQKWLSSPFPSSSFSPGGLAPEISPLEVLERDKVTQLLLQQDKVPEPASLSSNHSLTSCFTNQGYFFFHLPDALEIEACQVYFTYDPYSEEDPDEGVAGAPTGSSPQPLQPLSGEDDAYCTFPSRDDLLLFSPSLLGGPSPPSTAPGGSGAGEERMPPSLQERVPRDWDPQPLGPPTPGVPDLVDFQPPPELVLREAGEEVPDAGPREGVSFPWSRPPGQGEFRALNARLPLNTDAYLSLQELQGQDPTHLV
T1 sequence (looked up) 2: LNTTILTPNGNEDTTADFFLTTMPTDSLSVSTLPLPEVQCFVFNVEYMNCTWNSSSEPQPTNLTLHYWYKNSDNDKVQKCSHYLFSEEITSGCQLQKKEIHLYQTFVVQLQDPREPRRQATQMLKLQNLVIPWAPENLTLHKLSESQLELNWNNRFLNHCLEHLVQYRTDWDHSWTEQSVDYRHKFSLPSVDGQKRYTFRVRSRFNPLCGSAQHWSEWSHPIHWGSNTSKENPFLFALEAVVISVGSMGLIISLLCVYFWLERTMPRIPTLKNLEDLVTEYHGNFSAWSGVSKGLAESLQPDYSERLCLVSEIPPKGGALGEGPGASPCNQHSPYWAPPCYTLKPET


Columns and labels:
[1] = target: T1, IL-15Rβ/γ chain (IL-2Rβ and common …); assay: cell-based or functional assay
[2] = target: IL-15Rβ/γ chain (IL-2Rβ and common gamma chain) on cyno CD8+ T cells and NK cells (cynomolgus monkey); assay: cell-based or functional assay

EC50, % Ki67 expression, human CD8+ T cells [1] [nM]	EC50, % Ki67 expression, human NK cells [1] [nM]	Fold reduced (EC50, % Ki67), human CD8+ T cells [1] [fold]	Fold reduced (EC50, % Ki67), human NK cells [1] [fold]	EC50, % Ki67 expression, cyno donor 1 CD8+ T cells [2] [nM]	EC50, % Ki67 expression, cyno donor 1 NK cells [2] [nM]	Fold reduced (EC50, % Ki67), cyno donor 1 CD8+ T cells [2] [fold]	Fold reduced (EC50, % Ki67), cyno donor 1 NK cells [2] [fold]	EC50, % Ki67 expression, cyno donor 2 CD8+ T cells [2] [nM]	EC50, % Ki67 expression, cyno donor 2 NK cells [2] [nM]	Fold reduced (EC50, % Ki67), cyno donor 2 CD8+ T cells [2] [fold]	Fold reduced (EC50, % Ki67), cyno donor 2 NK cells [2] [fold]	Binder
338	29.2	1840	1390	29.2	65.6	325	729	–	–	–	–	W327151-TXU1.P1-V0001.uIgG1v805 (Fc fusion) chain 1: NWVNVISADLKKIEDLIQSMHIDATLYTESDVHPSCKVTAMKCFLLELQVISLESGDASIHDTVENLIILANNSLSSNGNVTESGCKECEELEEKNIKEFLQSFVHIVQMFINTSGGGGSEPKSSDKTHTCPPCPAPELLRGPSVFLFPPKPKDTLYITREPEVTCVVVDVSHEDPEVKFNWYVDGVEVHNAKTKPREEQYNSTYRVVSVLTVLHQDWLNGKEYKCKVSNKARPAPIEKTISKAKGQPREPQVYTLPPCREEMTKNQVSLWCLVKGFYPSDIAVEWESNGQPENNYKTTPPVLDSDGSFFLYSKLTVDKSRWQQGNVFSCSVMHEALHNHYTQKSLSLSPG chain 2: ITCPPPMSVEHADIWVKSYSLYSRERYICNSGFKRKAGTSSLTECVLNKATNVAHWTTPSLKCIRGGGGSEPKSSDKTHTCPPCPAPELLRGPSVFLFPPKPKDTLYITREPEVTCVVVDVSHEDPEVKFNWYVDGVEVHNAKTKPREEQYNSTYRVVSVLTVLHQDWLNGKEYKCKVSNKARPAPIEKTISKAKGQPREPQVCTLPPSREEMTKNQVSLSCAVKGFYPSDIAVEWESNGQPENNYKTTPPVLDSDGSFFLVSKLTVDKSRWQQGNVFSCSVMHEALHNHYTQKSLSLSPG
174	19.1	947	911	–	–	–	–	–	–	–	–	W327151-TXU1.P1-V0002.uIgG1v805 (Fc fusion) chain 1: NWVNVISDALKKIEDLIQSMHIDATLYTESDVHPSCKVTAMKCFLLELQVISLESGDASIHDTVENLIILANNSLSSNGNVTESGCKECEELEEKNIKEFLQSFVHIVQMFINTSGGGGSEPKSSDKTHTCPPCPAPELLRGPSVFLFPPKPKDTLYITREPEVTCVVVDVSHEDPEVKFNWYVDGVEVHNAKTKPREEQYNSTYRVVSVLTVLHQDWLNGKEYKCKVSNKARPAPIEKTISKAKGQPREPQVYTLPPCREEMTKNQVSLWCLVKGFYPSDIAVEWESNGQPENNYKTTPPVLDSDGSFFLYSKLTVDKSRWQQGNVFSCSVMHEALHNHYTQKSLSLSPG chain 2: ITCPPPMSVEHADIWVKSYSLYSRERYICNSGFKRKAGTSSLTECVLNKATNVAHWTTPSLKCIRGGGGSEPKSSDKTHTCPPCPAPELLRGPSVFLFPPKPKDTLYITREPEVTCVVVDVSHEDPEVKFNWYVDGVEVHNAKTKPREEQYNSTYRVVSVLTVLHQDWLNGKEYKCKVSNKARPAPIEKTISKAKGQPREPQVCTLPPSREEMTKNQVSLSCAVKGFYPSDIAVEWESNGQPENNYKTTPPVLDSDGSFFLVSKLTVDKSRWQQGNVFSCSVMHEALHNHYTQKSLSLSPG
22.5	6.72	122	320	3.37	10.3	37	115	–	–	–	–	W327151-TXU1.P1-V0004.uIgG1v805 (Fc fusion) chain 1: NWVNVISDLKAKIEDLIQSMHIDATLYTESDVHPSCKVTAMKCFLLELQVISLESGDASIHDTVENLIILANNSLSSNGNVTESGCKECEELEEKNIKEFLQSFVHIVQMFINTSGGGGSEPKSSDKTHTCPPCPAPELLRGPSVFLFPPKPKDTLYITREPEVTCVVVDVSHEDPEVKFNWYVDGVEVHNAKTKPREEQYNSTYRVVSVLTVLHQDWLNGKEYKCKVSNKARPAPIEKTISKAKGQPREPQVYTLPPCREEMTKNQVSLWCLVKGFYPSDIAVEWESNGQPENNYKTTPPVLDSDGSFFLYSKLTVDKSRWQQGNVFSCSVMHEALHNHYTQKSLSLSPG chain 2: ITCPPPMSVEHADIWVKSYSLYSRERYICNSGFKRKAGTSSLTECVLNKATNVAHWTTPSLKCIRGGGGSEPKSSDKTHTCPPCPAPELLRGPSVFLFPPKPKDTLYITREPEVTCVVVDVSHEDPEVKFNWYVDGVEVHNAKTKPREEQYNSTYRVVSVLTVLHQDWLNGKEYKCKVSNKARPAPIEKTISKAKGQPREPQVCTLPPSREEMTKNQVSLSCAVKGFYPSDIAVEWESNGQPENNYKTTPPVLDSDGSFFLVSKLTVDKSRWQQGNVFSCSVMHEALHNHYTQKSLSLSPG
352	106	1910	5030	–	–	–	–	100	26.3	5890	3290	W327151-TXU1.P1-V0005.uIgG1v805 (Fc fusion) chain 1: NWVNVISDLKKIEDLIQSMHIDATLYTESDVHPSCKVTAMKCFLLELQVISLESGDASIHDTVEANLIILANNSLSSNGNVTESGCKECEELEEKNIKEFLQSFVHIVQMFINTSGGGGSEPKSSDKTHTCPPCPAPELLRGPSVFLFPPKPKDTLYITREPEVTCVVVDVSHEDPEVKFNWYVDGVEVHNAKTKPREEQYNSTYRVVSVLTVLHQDWLNGKEYKCKVSNKARPAPIEKTISKAKGQPREPQVYTLPPCREEMTKNQVSLWCLVKGFYPSDIAVEWESNGQPENNYKTTPPVLDSDGSFFLYSKLTVDKSRWQQGNVFSCSVMHEALHNHYTQKSLSLSPG chain 2: ITCPPPMSVEHADIWVKSYSLYSRERYICNSGFKRKAGTSSLTECVLNKATNVAHWTTPSLKCIRGGGGSEPKSSDKTHTCPPCPAPELLRGPSVFLFPPKPKDTLYITREPEVTCVVVDVSHEDPEVKFNWYVDGVEVHNAKTKPREEQYNSTYRVVSVLTVLHQDWLNGKEYKCKVSNKARPAPIEKTISKAKGQPREPQVCTLPPSREEMTKNQVSLSCAVKGFYPSDIAVEWESNGQPENNYKTTPPVLDSDGSFFLVSKLTVDKSRWQQGNVFSCSVMHEALHNHYTQKSLSLSPG
13.5	1.58	73.5	75.1	–	–	–	–	2.59	1.04	153	130	W327151-TXU1.P1-V0006.uIgG1v805 (Fc fusion) chain 1: NWVNVISDLKKIEDLIQSMHIDATLYTESDVHPSCKVTAMKCFLLELQVISLESGDASIHDTVENALIILANNSLSSNGNVTESGCKECEELEEKNIKEFLQSFVHIVQMFINTSGGGGSEPKSSDKTHTCPPCPAPELLRGPSVFLFPPKPKDTLYITREPEVTCVVVDVSHEDPEVKFNWYVDGVEVHNAKTKPREEQYNSTYRVVSVLTVLHQDWLNGKEYKCKVSNKARPAPIEKTISKAKGQPREPQVYTLPPCREEMTKNQVSLWCLVKGFYPSDIAVEWESNGQPENNYKTTPPVLDSDGSFFLYSKLTVDKSRWQQGNVFSCSVMHEALHNHYTQKSLSLSPG chain 2: ITCPPPMSVEHADIWVKSYSLYSRERYICNSGFKRKAGTSSLTECVLNKATNVAHWTTPSLKCIRGGGGSEPKSSDKTHTCPPCPAPELLRGPSVFLFPPKPKDTLYITREPEVTCVVVDVSHEDPEVKFNWYVDGVEVHNAKTKPREEQYNSTYRVVSVLTVLHQDWLNGKEYKCKVSNKARPAPIEKTISKAKGQPREPQVCTLPPSREEMTKNQVSLSCAVKGFYPSDIAVEWESNGQPENNYKTTPPVLDSDGSFFLVSKLTVDKSRWQQGNVFSCSVMHEALHNHYTQKSLSLSPG
